Data reported in patent publication US20050065080A1, “Use of leptin in fertility” (priority 2001, published 2005).

Legend:
C57BL/6 mice = test: Ovulation induction in antide-treated prepubertal C57BL/6 mice (oocyte count); type: in vivo, mouse; conditions: for Oocyte count in C57BL/6 mice: antide-treated, PMSG at 0 h, leptin or hCG at 48 h, oocytes counted at 72 h, range
Description: (§1) In the present example, ovulation was studied in ob/ob mice and in prepubertal C57BL/6 mice. All mice were treated with antide to prevent induction of LH by leptin. […] Following the various treatments, mice were sacrificed and oocytes were collected from the ampoule at 72 hours from the first injection and counted.
(§2) Similarly a group of ob/ob mice were injected with PMSG (3 IU/animal) and after 48 h with leptin (2×5 μg/g weight). […] Ovulation was monitored by counting oocytes in the oviducts under the microscope.

LH = test: Serum LH radioimmunoassay in antide-treated mice; type: in vivo, mouse
Description: Leptin induces the GnRH release from the Hypothalamus, which in turn releases FSH and LH from the Pituitary glands (Yu et al. 1997). To test if the follicle development and ovulation induced in the antide-treated C57BL mice and ob/ob mice by leptin is mediated by LH release, serum LH as well as progesterone, which is an LH-induced marker was measured. Measurement of plasma murine LH (mLH) and progesterone were carried out with specific radioimmunoassays. Progesterone was determined in mouse sera by RIA (Kohen 1975). LH was determined in mouse by a specific RIA, obtained trough the National Hormone & Pituitary Program, harbor-UCLA Medical Center (Torrance, California). The levels of mLH were below 0.2 ng/ml in all cases (Table 2). The levels of LH remained low throughout the follicular growth and ovulation in leptin-treated mice. However, it is difficult to detect the LH surge even in positive controls. Therefore, measurement of the LH-induced serum progesterone serve as a more reliable marker of circulating LH.

ob/ob mice [1] = test: Follicular development in antide-treated ob/ob mice (hematoxylin-eosin ovarian sections); type: in vivo, mouse; conditions: for follicular growth in ovarian sections: single agent
Description: The effect of leptin in follicular development was studied in ob/ob mice that were treated with the GnRH antagonist antide (Phillips et al. 1988). It is therefore expected that following administration of leptin to antide treated mice, as opposed to non-treated mice, release of LH or FSH from the pituitary gland will not occur.
8-10 week-old obese C57B1-ob/ob female mice were all injected (time 0) with antide (1.25 μg/g body weight). Mice were divided into several groups. A control group was injected with saline only. A second group was injected with murine leptin (ip,2×5 μg/g body weight purchased from R&D systems) at times 0 and 9 h. A third group was injected with pregnant mare serum gonadotropins (PMSG, 3 IU/mice, sc). A fourth group received a combination of both PMSG and leptin. Mice were sacrificed at 9, 24, and 48 and 72 h following the first treatment, the ovaries were excised, paraffin-fixed and stained with hematoxylin-eosin to visualize follicular and ovarian growth.

uterus = test: Appearance of the uterus in treated mice; type: in vivo, mouse; conditions: for uterus distension and hyperemia: after PMSG, or PMSG followed by hCG or leptin, leptin: ob/ob mice that ovulated
ob/ob mice [2] = test: Ovulation induction in antide-treated ob/ob mice (oocyte count); type: in vivo, mouse; conditions: for Oocyte count in ob/ob mice: antide-treated, PMSG at 0 h, leptin or hCG at 48 h, oocytes counted at 72 h, range
Description: as §1, §2

Cathepsin L = Cathepsin L expression in cultured pre-ovulatory follicles (quantitative RT-PCR); type: cell-based, mouse; conditions: 17 h; not statistically significant
Text: Total RNA was isolated from the follicles and subjected to quantitative RT-PCR with specific primers for two proteases, ADAMTS-1 and Cathepsin L. The PCR products were resolved in agarose gel electrophoresis and scanned. The RNAs levels of ADAMTS-1 were normalized to the RNAs levels of ribosomal protein
To test whether leptin can induce the expression of ADAMTS-1 and cathepsin L by acting directly on the ovary, in vitro experiments were preformed on pre-ovulatory follicles obtained from 21 days old C57BL/6 mice treated with PMSG (3 IU/animal) for 48 h. […] Total RNA was isolated from the follicles and subjected to quantitative RT-PCR using the LightCycler™ (Roche diagnostics). The primers used for the detection of murine ADAMTS-1 transcripts were: […]
The RNAs levels of ADAMTS-1 and cathepsin L detected in agarose gel electrophoresis of the PCR products were normalized to the RNAs levels of murine ribosomal protein L19

ADAMTS-1 = ADAMTS-1 expression in cultured pre-ovulatory follicles (quantitative RT-PCR); type: cell-based, mouse; conditions: 17 h; leptin 250 ng/ml or hCG 1 IU; normalized to ribosomal protein L19; FIG. 2
Description: Pre-ovulatory follicles were removed, cultured and further treated for 17 h in the absence or presence of either leptin (250 ng/ml) or hCG (1 IU). Total RNA was isolated from the follicles and subjected to quantitative RT-PCR using the LightCycler™ (Roche diagnostics). The primers used for the detection of murine ADAMTS-1 transcripts were:

progesterone = test: Serum progesterone radioimmunoassay in ob/ob and C57BL/6 mice; type: in vivo, mouse; conditions: PMSG at time 0, agent at 48 h, RIA at 72 h; FIG. 1
Description: Mice were treated with PMSG at time 0 and the indicated agent at 48 h. Progesterone was determined by RIA at 72 h in sera of C57BL/6 mice (grey bars) and of ob/ob mice (open bars).

[3] = antide + PMSG (48 h) then leptin or hCG (24 h)

In the case of antide [reference compound], the “Oocyte count in C57BL/6 mice” value (C57BL/6 mice) is reported as 0, the “Serum LH” value (LH; antide-treated mice, 72 h) is reported as 0.04 ± 0.01 ng/mL and the “follicular growth in ovarian sections” value (ob/ob mice [1]; antide-treated ob/ob mice) is reported as “only early stages of follicular growth”.

With “pregnant mare serum gonadotropins [PMSG, reference compound]” the “Oocyte count in C57BL/6 mice” value (C57BL/6 mice) was 0, the “Serum LH” value (LH; antide + PMSG, 60 h) was 0.2 ng/mL and the “Serum LH” value (LH; antide-treated mice, 72 h) was 0.09 ± 0.01 ng/mL. The “uterus distension and hyperemia” value (uterus) was “maximal distension”, the “follicular growth in ovarian sections” value (ob/ob mice [1]; antide-treated ob/ob mice) was “large antral follicles were formed at 72 h” and the “Oocyte count in ob/ob mice” value (ob/ob mice [2]) was 0 oocytes per mouse.

B1: leptin (protein, UniProt P41160 22-167, looked up)
Leptin: VPIQKVQDDTKTLIKTIVTRINDISHTQSVSAKQRVTGLDFIPGLHPILSLSKMDQTLAVYQQVLTSLPSQNVLQIANDLENLRDLLHLLAFSKSCSLPQTSGLQKPESLDGVLEASLYSTEVVALSRLQGSLQDILQQLDVSPEC
notes: murine leptin purchased from R&D systems; adipocyte-secreted protein encoded by the obese (ob) gene
B1 was tested, and the “mice ovulated, C57BL/6 mice” value (C57BL/6 mice; [3]) was 7 out of 7 mice, the “Oocyte count in C57BL/6 mice” value (C57BL/6 mice) was “(2-7)” and the “Serum LH” value (LH; antide + PMSG 48 h then leptin 12 h) was 0.17 ± 0 ng/mL. For the same molecule, the “Serum LH” value (LH; antide + PMSG 48 h then leptin 24 h) was 0.057 ± 0.01 ng/mL, the “Serum LH” value (LH; antide + leptin, 9 h) was 0.05 ng/mL and the “Serum LH” value (LH; antide + leptin, 24 h) was 0.06 ± 0.01 ng/mL. For the same molecule, the “Serum LH” value (LH; antide + leptin, 48 h) was 0.07 ± 0.04 ng/mL, the “Serum LH” value (LH; antide-treated mice, 72 h) was 0.04 ± 0.01 ng/mL and the “induction of Cathepsin L RNA” value (Cathepsin L) was “Marginal induction”. For the same molecule, the “uterus distension and hyperemia” value (uterus) was “remained hyperemic, exhibiting maximal distension”, the uterine features (uterus; antide-treated C57BL/6 mice) was “same uterine features, were also observed” and the uterus hyperemia (uterus; leptin in the absence of PMSG) was “rendered the uterus hyperemic”. For the same molecule, the “induction of ADAMTS-1 RNA” value (ADAMTS-1) was “significant induction”, the ovarian growth (ob/ob mice [1]; antide-treated ob/ob mice, concomitant PMSG and leptin, after 72 h) was “an interstitial cell growth and further ovarian growth were observed” and the “time at which large follicles could be observed after initiation of treatment” value (ob/ob mice [1]; antide-treated ob/ob mice, as early as) was 9 h. The “follicular growth in ovarian sections” value (ob/ob mice [1]; antide-treated ob/ob mice) was “induced rapid follicular growth”, the “corpora lutea in the ovaries” value (ob/ob mice [1]; ob/ob mice, PMSG at time 0 and leptin instead of hCG at 48 h, seen at 72 h) was “corpora lutea were also seen” and the serum progesterone (progesterone) was “lack of significant progesterone synthesis”. For the same molecule, the “ovulation (oocytes in the oviducts)” value (ob/ob mice [2]; PMSG then agent at 48 h, summary of Table 1) was “ovulation was observed”, the “mice ovulated, ob/ob mice” value (ob/ob mice [2]; [3]) was 3 out of 5 mice ovulated and the “Oocyte count in ob/ob mice” value (ob/ob mice [2]) was “(range 1-6 oocytes per oocytes per mouse”.
